For this assay, the target named is G-CSF receptor. Description: cell-based or functional assay.

Take “G-CSF[C17A] (from UniProt P09919 31-207) (ligand)”: the EC50/Neupogen (reporter activity in cells expressing the G-CSF receptor) (ratio to Neupogen) stood at 0.66.

As for “Wild-type G-CSF (from UniProt P09919 31-207) (ligand)”, the EC50/Neupogen (reporter activity in cells expressing the G-CSF receptor) (ratio to Neupogen) was found to be 0.38.
